Source: patent US8581042B2, “Polypeptides having beta-glucosidase activity and polynucleotides encoding same” (Novozymes A/S, priority 2010, dated 2013)

Tests used:
[1] = PCS hydrolysis assay (1-gram ground-sieved, unwashed PCS), cellulose conversion; format: biochemical; details: supplemented; 50 and 55° C., pH 5.0
Procedure: Corn stover was pretreated at the U.S. Department of Energy National Renewable Energy Laboratory (NREL) using dilute sulfuric acid. The conditions used for the pretreatment were 0.048 g sulfuric acid/g dry biomass at 190° C. and 25% w/w dry solids for around 1 minute. The water-insoluble solids in the pretreated corn stover (PCS) contained 52% cellulose, 3.6% hemicellulose and 29.8% lignin. Cellulose and hemicellulose were determined by a two-stage sulfuric acid hydrolysis with subsequent analysis of sugars by high performance liquid chromatography using NREL Standard Analytical Procedure #002. Lignin was determined gravimetrically after hydrolyzing the cellulose and hemicellulose fractions with sulfuric acid using NREL Standard Analytical Procedure #003. […] The protein concentration was determined using a BCA Reagent Kit (Pierce, Rockford, Ill., USA).
Penicillium oxalicum GH3 beta-glucosidase (1.5 mg/g cellulose) was added to CELLUCLAST® 1.5L (15 mg/g cellulose) for a total loading of 16.5 mg protein/g cellulose. […] After 72 hour incubation at 50 and 55° C., samples were mixed well, centrifuged at 3000 rpm for 5 minutes, and supernatants were filtered using a 0.45 μm MULTISCREEN® 96-well filter plate (Millipore, Bedford, Mass., USA) and filtrates analyzed for sugar content as described below. […]

[2] = Specific activity on pNPG; format: biochemical; details: 40° C., pH 5, 20 minutes
Procedure: (§1) Specific activity. 4-Nitrophenyl-beta-D-glucopyranoside (pNPG) was dissolved in DMSO to produce a 100 mM stock solution. Right before assay, the 100 mM pNPG stock solution was diluted 100-fold in 50 mM sodium acetate pH 5 with 0.01% TWEEN® 20 to 1 mM pNPG. Enzyme was diluted to a wide range of concentrations in the same buffer. To 20 μl of the enzyme dilutions (a range of concentration), 100 μl of the 1 mM pNPG solution were quickly added. The reaction was incubated at 40° C. for 20 minutes before the reaction was stopped with 50 μl of 1 M sodium carbonate pH 10, and the absorbance at 405 nm was measured for 4-nitrophenolate production. The specific activity of the Penicillium oxalicum GH3 beta-glucosidase on pNPG was determined to be 72.3±1.7 IU/mg, where […] produce 1 μmole of glucose per minute at 40° C., pH 5.

[3] = Thermostability: residual activity on pNPG after incubation; format: physicochemical; details: 1 g/L, pH 5
Procedure: as §1
Thermostability. The Penicillium oxalicum GH3 beta-glucosidase was diluted in 50 mM sodium acetate pH 5 with 0.01% TWEEN® 20 to 1 g/L, and then incubated at 50° C. for 3 days, and 60° C. for 3 hours or 24 hours. The same sample was stored at 4° C. to serve as control. After incubation, the residual activity of the samples was measured using pNPG as substrate, following the same assay protocol described above, but using one enzyme loading which yielded less than 5% conversion. The activity of the sample in 4° C. was normalized to 100%, and the activities of samples at other incubation conditions were compared to the 4° C. activity. The thermostability of the Penicillium oxalicum GH3 beta-glucosidase is shown below.

[4] = pH activity profile on pNPG; format: biochemical; details: Britton Robinson buffer, 50° C.
Procedure: as §1
pH profile. The pH activity profile of the Penicillium oxalicum GH3 beta-glucosidase was determined using the same protocol described above, except the beta-glucosidase was incubated at four different pHs (4, 5, 6, and 7) and one enzyme loading was used, which yielded less than 5% conversion. Britton Robinson buffer (100 mM) was used as the buffer system. The 100 mM Britton Robinson buffer was titrated to a various pH values in the range of 4-7 using 5 M sodium hydroxide and then diluted to 40 mM with deionized water. The pNP-glucose was prepared in the same buffer, and the activity was measured at 50° C. The highest activity was normalized to 100%, and activities at the other pH values were compared to the highest activity and expressed in % activity. The pH profile of the Penicillium oxalicum GH3 beta-glucosidase is shown below.

B1: Penicillium oxalicum GH3 beta-glucosidase: Family GH3 beta-glucosidase of Penicillium oxalicum strain IBT5387 (SEQ ID NO: 2), expressed in Aspergillus oryzae and purified (protein, listed as Penicillium oxalicum)
chain: MRSSTTVLAFVSYGSFGIAAAKPIQEHKPELLNSFHGFQIEEPYSPPFYPSPWMNPRAEGWEDAYQKALAFVSQLTLLEKVNLTTGVGWENGPCVGNTGSVPRLGFKGLCLQDSPQGVRFADYASAFTSSQMAAATFDKTVLYERGVAMAQEHKGKGITVQLGPVAGPLGRAPEGGRNWEGFSPDPVLNGIAMAETIKGMQDTGVLACAKHYVGNEQEHFRQAGESAGHGYNIAESISSNIDDRTMHEMYLWPFADAVRAGVASFMCSYNQINNSYGCQNSHTLNKLLKSELGFQGFVMSDWQAQHSGVSSALAGLDMTMPGDTEFDTGLSFWGSNLTIAVLNGTVPEWRIDDMAMRIMAAYFKVGLTIEDQPDVNFNSWTYDTYGYKYFYSKEGYEKVNWHVDVRANHAQQIRETAAKGTVLLKNTNGALPLKRPSFVAVVGEDAGPNPKGPNGCPDRGCDEGTLAMGWGSGSTQFPFLVTPDSAIQAKVLEYGGRYESILDNYDESAISALVSQPDATCIVFGNSDSGEAFITVDGNWGDRNNLTLWQNADAVIRNVSALCSNTIVVLHTVGPVLLTDYYEHPNITAIVWAGLPGEESGNALVDILWGDVNPAGRTPFTWAKSREDYGTDVMYVPNNGEQAPQQSFSEGIFLDYRHFDQAGIDPIYEFGHGLSYTNFSYSDLRIVTKHVRPYRPTTGMTTQAPIIGPLPSPNLTEYQFPATFKYIPAFIYPYLNSTESLRAASKDPHYGSTAFIPPHALDSSPQPLNPAGDPIASGGNSMLYQELYEITAKITNTGNLAGDEVVQLYVNLGGDNPPRQLRGFDRIHLLPGQSKVFRATLTRRDLSNWDVAAQNWRIIRSAKEVYVGRSSRDLPLSARLESW
- effect on CELLUCLAST 1.5L in PCS hydrolysis [1]: synergistic effect
- specific activity on pNPG [2]: 72.3±1.7 IU/mg
- Residual activity on pNPG ([3]; incubation 4° C. (control, normalized to 100%)): 100%
- Residual activity on pNPG ([3]; incubation 50° C., 72 hours): 100%
- Residual activity on pNPG ([3]; incubation 60° C., 3 hours): 100%
- Residual activity on pNPG ([3]; incubation 60° C., 24 hours): 100%
- Residual activity on pNPG ([3]; incubation 70° C., 24 hours): 76%
- Activity (relative to highest activity) ([4]; pH 4.0): 38%
- Activity (relative to highest activity) ([4]; pH 5.0): 99%
- Activity (relative to highest activity) ([4]; pH 6.0): 100%
- Activity (relative to highest activity) ([4]; pH 7.0): 36%
